Data: patent US20160068605A1 (Janssen / Centocor, published 2016)

T1: Recombinant human CD123 SP2 ECD protein (human, UniProt P26951 101-303)
T1 construct: also called rhCD123 SP2; CD123 ECD SP2
T1 sequence: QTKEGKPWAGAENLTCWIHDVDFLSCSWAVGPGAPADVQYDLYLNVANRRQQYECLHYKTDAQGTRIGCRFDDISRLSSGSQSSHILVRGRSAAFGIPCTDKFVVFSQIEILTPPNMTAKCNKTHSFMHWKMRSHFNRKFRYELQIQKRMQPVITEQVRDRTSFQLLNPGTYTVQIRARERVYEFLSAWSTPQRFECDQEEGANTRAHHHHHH

T2: Recombinant human CD123 SP1 ECD-His tag protein (human, UniProt P26951 20-305)
T2 construct: bought from R&D Systems (#301-R3/CF); biotinylated for some assays; also called rhCD123 SP1; huCD123 ECD SP1
T2 sequence: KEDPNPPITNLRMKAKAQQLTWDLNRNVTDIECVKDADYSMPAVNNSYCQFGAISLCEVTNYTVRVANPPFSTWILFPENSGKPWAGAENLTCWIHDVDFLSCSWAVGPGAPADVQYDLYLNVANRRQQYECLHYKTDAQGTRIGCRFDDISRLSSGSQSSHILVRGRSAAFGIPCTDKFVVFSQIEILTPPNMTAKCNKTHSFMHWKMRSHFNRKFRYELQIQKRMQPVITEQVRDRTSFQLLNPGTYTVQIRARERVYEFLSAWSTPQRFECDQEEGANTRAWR

T3: human CD123 SP2 ECD displayed on pDisplay-transfected cells (human, UniProt P26951 101-305)
T3 construct: ECD anchored on the surface of stably transfected HEK293 cells; also called hCD123 SP2 cells; pDisplay CD123SP2
T3 sequence: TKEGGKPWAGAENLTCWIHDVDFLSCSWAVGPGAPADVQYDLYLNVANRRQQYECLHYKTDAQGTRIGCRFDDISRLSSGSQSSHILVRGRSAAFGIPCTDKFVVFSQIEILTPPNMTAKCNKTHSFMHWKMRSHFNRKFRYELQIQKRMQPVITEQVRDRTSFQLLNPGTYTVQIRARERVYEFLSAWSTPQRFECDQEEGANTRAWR

T4: human CD123 SP1 ECD displayed on pDisplay-transfected cells (human, UniProt P26951 20-305)
T4 construct: ECD anchored on the surface of stably transfected HEK293 cells by the PDGFR transmembrane domain; also called hCD123 SP1 cells; hCD123 cells
T4 sequence: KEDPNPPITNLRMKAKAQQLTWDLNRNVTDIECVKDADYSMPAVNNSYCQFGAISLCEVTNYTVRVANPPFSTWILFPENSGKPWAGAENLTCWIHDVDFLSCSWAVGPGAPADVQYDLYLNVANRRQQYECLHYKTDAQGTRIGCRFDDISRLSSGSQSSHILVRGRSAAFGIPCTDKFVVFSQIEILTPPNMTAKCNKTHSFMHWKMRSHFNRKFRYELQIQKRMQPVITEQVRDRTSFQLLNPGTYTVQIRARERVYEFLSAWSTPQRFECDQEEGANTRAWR

B1: bispecific antibody Ab 3978 (bispecific antibody, human IgG4 S228P, kappa, lambda, F234A L235A)
heavy 1: EVQLLESGGGLVQPGGSLRLSCAASGFTFNTYAMNWVRQAPGKGLEWVARIRSKYNNYATYYADSVKGRFTISRDNSKNTLYLQMNSLRAEDTAVYYCVKHGNFGNSYVSWFAYWGQGTLVTVSSASTKGPSVFPLAPCSRSTSESTAALGCLVKDYFPEPVTVSWNSGALTSGVHTFPAVLQSSGLYSLSSVVTVPSSSLGTKTYTCNVDHKPSNTKVDKRVESKYGPPCPPCPAPEAAGGPSVFLFPPKPKDTLMISRTPEVTCVVVDVSQEDPEVQFNWYVDGVEVHNAKTKPREEQFNSTYRVVSVLTVLHQDWLNGKEYKCKVSNKGLPSSIEKTISKAKGQPREPQVYTLPPSQEEMTKNQVSLTCLVKGFYPSDIAVEWESNGQPENNYKTTPPVLDSDGSFLLYSKLTVDKSRWQEGNVFSCSVMHEALHNHYTQKSLSLSLGK
light 1: QAVVTQEPSLTVSPGGTVTLTCRSSTGAVTTSNYANWVQQKPGQAPRGLIGGTNKRAPGTPARFSGSLLGGKAALTLSGAQPEDEAEYYCALWYSNLWVFGGGTKLTVLGQPKAAPSVTLFPPSSEELQANKATLVCLISDFYPGAVTVAWKADSSPVKAGVETTTPSKQSNNKYAASSYLSLTPEQWKSHRSYSCQVTHEGSTVEKTVAPTECS
heavy 2: not shown
light 2: EIVLTQSPGTLSLSPGERATLSCRASQSVSSSYLAWYQQKPGQAPRLLIYGASSRATGIPDRFSGSGSGTDFTLTISRLEPEDFAVYYCQQDYGFPWTFGQGTKVEIKRTVAAPSVFIFPPSDEQLKSGTASVVCLLNNFYPREAKVQWKVDNALQSGNSQESVTEQDSKDSTYSLSSTLTLSKADYEKHKVYACEVTHQGLSSPVTKSFNRGEC
notes: IgG4-PAA; CD3 arm of CD3B217 (first heavy and light chain), CD123 arm of I3RB217 (I3RB18)
B2: bispecific antibody Ab 8876 (bispecific antibody, human IgG4 S228P, kappa, lambda, F234A L235A)
heavy 1: EVQLLESGGGLVQPGGSLRLSCAASGFTFNTYAMNWVRQAPGKGLEWVARIRSKYNNYATYYADSVKGRFTISRDNSKNTLYLQMNSLRAEDTAVYYCVKHGNFGNSYVSWFAYWGQGTLVTVSSASTKGPSVFPLAPCSRSTSESTAALGCLVKDYFPEPVTVSWNSGALTSGVHTFPAVLQSSGLYSLSSVVTVPSSSLGTKTYTCNVDHKPSNTKVDKRVESKYGPPCPPCPAPEAAGGPSVFLFPPKPKDTLMISRTPEVTCVVVDVSQEDPEVQFNWYVDGVEVHNAKTKPREEQFNSTYRVVSVLTVLHQDWLNGKEYKCKVSNKGLPSSIEKTISKAKGQPREPQVYTLPPSQEEMTKNQVSLTCLVKGFYPSDIAVEWESNGQPENNYKTTPPVLDSDGSFLLYSKLTVDKSRWQEGNVFSCSVMHEALHNHYTQKSLSLSLGK
light 1: QAVVTQEPSLTVSPGGTVTLTCRSSTGAVTTSNYANWVQQKPGQAPRGLIGGTNKRAPGTPARFSGSLLGGKAALTLSGAQPEDEAEYYCALWYSNLWVFGGGTKLTVLGQPKAAPSVTLFPPSSEELQANKATLVCLISDFYPGAVTVAWKADSSPVKAGVETTTPSKQSNNKYAASSYLSLTPEQWKSHRSYSCQVTHEGSTVEKTVAPTECS
heavy 2: not shown
light 2: not shown
notes: also called 8876I
B3: bispecific antibody Ab 4435 (bispecific antibody, human IgG4 S228P, kappa, lambda, F234A L235A)
heavy 1: EVQLLESGGGLVQPGGSLRLSCAASGFTFNTYAMNWVRQAPGKGLEWVARIRSKYNNYATYYADSVKGRFTISRDNSKNTLYLQMNSLRAEDTAVYYCVKHGNFGNSYVSWFAYWGQGTLVTVSSASTKGPSVFPLAPCSRSTSESTAALGCLVKDYFPEPVTVSWNSGALTSGVHTFPAVLQSSGLYSLSSVVTVPSSSLGTKTYTCNVDHKPSNTKVDKRVESKYGPPCPPCPAPEAAGGPSVFLFPPKPKDTLMISRTPEVTCVVVDVSQEDPEVQFNWYVDGVEVHNAKTKPREEQFNSTYRVVSVLTVLHQDWLNGKEYKCKVSNKGLPSSIEKTISKAKGQPREPQVYTLPPSQEEMTKNQVSLTCLVKGFYPSDIAVEWESNGQPENNYKTTPPVLDSDGSFLLYSKLTVDKSRWQEGNVFSCSVMHEALHNHYTQKSLSLSLGK
light 1: QTVVTQEPSLTVSPGGTVTLTCRSSTGAVTTSNYANWVQQKPGQAPRGLIGGTNKRAPGTPARFSGSLLGGKAALTLSGVQPEDEAEYYCALWYSNLWVFGGGTKLTVLGQPKAAPSVTLFPPSSEELQANKATLVCLISDFYPGAVTVAWKADSSPVKAGVETTTPSKQSNNKYAASSYLSLTPEQWKSHRSYSCQVTHEGSTVEKTVAPTECS
heavy 2: not shown
light 2: not shown
B4: bispecific antibody Ab 7955 (bispecific antibody, human IgG4 S228P, kappa, lambda, F234A L235A)
heavy 1: EVQLLESGGGLVQPGGSLRLSCAASGFTFNTYAMNWVRQAPGKGLEWVARIRSKYNNYATYYADSVKGRFTISRDNSKNTLYLQMNSLRAEDTAVYYCVKHGNFGNSYVSWFAYWGQGTLVTVSSASTKGPSVFPLAPCSRSTSESTAALGCLVKDYFPEPVTVSWNSGALTSGVHTFPAVLQSSGLYSLSSVVTVPSSSLGTKTYTCNVDHKPSNTKVDKRVESKYGPPCPPCPAPEAAGGPSVFLFPPKPKDTLMISRTPEVTCVVVDVSQEDPEVQFNWYVDGVEVHNAKTKPREEQFNSTYRVVSVLTVLHQDWLNGKEYKCKVSNKGLPSSIEKTISKAKGQPREPQVYTLPPSQEEMTKNQVSLTCLVKGFYPSDIAVEWESNGQPENNYKTTPPVLDSDGSFLLYSKLTVDKSRWQEGNVFSCSVMHEALHNHYTQKSLSLSLGK
light 1: QTVVTQEPSLTVSPGGTVTLTCRSSTGAVTTSNYANWVQQKPGQAPRGLIGGTNKRAPGTPARFSGSLLGGKAALTLSGVQPEDEAEYYCALWYSNLWVFGGGTKLTVLGQPKAAPSVTLFPPSSEELQANKATLVCLISDFYPGAVTVAWKADSSPVKAGVETTTPSKQSNNKYAASSYLSLTPEQWKSHRSYSCQVTHEGSTVEKTVAPTECS
heavy 2: not shown
light 2: EIVLTQSPGTLSLSPGERATLSCRASQSVSSSYLAWYQQKPGQAPRLLIYGASSRATGIPDRFSGSGSGTDFTLTISRLEPEDFAVYYCQQDYGFPWTFGQGTKVEIKRTVAAPSVFIFPPSDEQLKSGTASVVCLLNNFYPREAKVQWKVDNALQSGNSQESVTEQDSKDSTYSLSSTLTLSKADYEKHKVYACEVTHQGLSSPVTKSFNRGEC
notes: IgG4-PAA; CD3 arm of CD3B218, CD123 arm of I3RB217 (I3RB18)

Legend:
[1] = target: T1, Recombinant human CD123 SP2 ECD protein; assay: SPR Biacore T200, captured antibody
Protocol: (§1) Kinetic studies were performed at 25° C. using a Biacore T200 (Biacore, Inc., now part of GE Healthcare). […] The carboxymethyl groups of dextran were activated with N-Ethyl-N′-(3-Dimethylaminopropyl)carbodiimide (EDC) and N-hydroxysuccinimide (NHS). The anti-Fc antibody was coupled at pH 4.5 in 10 mM sodium acetate. Any remaining reactive sites on the surface were blocked by reaction with ethanolamine. […] 40-70 RU of antibody were captured. […] Association data was collected for 2 min followed by 10 min of dissociation. The surface was regenerated with 30 μL of 100 mM H3PO4 100 μL/min, followed by 50 mM NaOH. The samples for kinetic analysis were prepared in PBS-based buffer (D-PBS containing 3 mM EDTA and 0.005% surfactant P20). Data reported is the difference in SPR signal between the flow cell containing the captured antibody and a reference cell without captured antibody. Additional instrumental contributions to the signal were removed by subtraction of the data from the blank injection from the reference-subtracted signal. Data were analyzed by fitting association and dissociation phases at all concentrations (global fit) with a 1:1 binding model using the BIAevaluation software (BIAcore, Inc.).

[2] = target: T2, Recombinant human CD123 SP1 ECD-His tag …; assay: SPR Biacore T200, captured antibody
Protocol: as §1

[3] = target: T3, human CD123 SP2 ECD displayed on …; assay: MSD-CAT on pDisplay cells
Protocol: (§2) The MSD-CAT was developed in-house as a label-free method to determine affinity using intact cells in a high throughput format. […] Cell lines used were human pDisplay CD123SP1 and pDisplay CD123SP2. […] These samples were prepared in DMEM Glutamax medium containing 0.05% Azide, 1% BSA, 3 mM EDTA. […] After equilibration the plate was centrifuged for 5 minutes ˜1000 rpm and free anti-CD3 detected on the supernatant. […] The assay buffer was removed without washing and 50 uL/well of 0.7 ug/mL of biotinylated antigen in assay buffer were added to MSD plates and incubated overnight (˜16 hours at 4° C.).

[4] = target: T4, human CD123 SP1 ECD displayed on …; assay: MSD-CAT on pDisplay cells
Protocol: as §2

[5] = target: T5, cell-surface CD3 epsilon on primary human T cells (human, UniProt P07766 23-207); assay: flow cytometry competition with labeled CD3B146 on T cells
T5 construct: whole, on cells; part of the CD3/TCR complex on the cells
T5 sequence (P07766 23-207): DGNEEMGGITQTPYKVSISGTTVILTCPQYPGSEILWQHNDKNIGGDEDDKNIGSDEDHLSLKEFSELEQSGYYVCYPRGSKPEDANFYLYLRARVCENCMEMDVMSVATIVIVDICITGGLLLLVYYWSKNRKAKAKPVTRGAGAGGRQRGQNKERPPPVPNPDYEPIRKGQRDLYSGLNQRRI
Excerpt: (§3) The format involved competition binding using a fixed concentration of labeled anti-CD3 mAb of known affinity and increasing concentrations of unlabeled test Abs (Ashkenazi A et al. PNAS: 88:10535, 1991.).

[6] = target: T6, cell-surface CD3 epsilon on primary cynomolgus T cells (cynomolgus monkey, UniProt Q95LI5 22-198); assay: as above
T6 construct: whole, on cells; also called cynomolgus CD3e; Cyno T-cells
T6 sequence (Q95LI5 22-198): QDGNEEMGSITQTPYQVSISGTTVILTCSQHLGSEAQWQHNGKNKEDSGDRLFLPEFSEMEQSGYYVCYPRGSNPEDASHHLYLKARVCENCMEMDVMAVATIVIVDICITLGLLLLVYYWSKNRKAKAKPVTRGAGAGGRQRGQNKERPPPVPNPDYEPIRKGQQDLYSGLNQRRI
Excerpt: as §3

Row | Binder | Kd [1] [nM] | koff [1] [s⁻¹] | kon [1] [M⁻¹ s⁻¹] | Kd [2] [nM] | koff [2] [s⁻¹] | kon [2] [M⁻¹ s⁻¹] | Kd [3] [nM] | Kd [4] [nM] | Kd [5] [nM] | Kd [6] [nM]
1 | B1 | 0.356 | 0.0011 | 3.12e+06 | 1.47 | 0.00083 | 564000 | 0.528 | 0.153 | 241 | 215
2 | B2 | 1.75 | 0.005 | 2.83e+06 | 14.4 | 0.0049 | 343000 | 2.45 | 1.29 | 169 | 110
3 | B3 | 1.74 | 0.005 | 2.88e+06 | 14.3 | 0.0048 | 337000 | 3.7 | 1.53 | 174 | 139
4 | B4 | 0.344 | 0.0011 | 3.33e+06 | 1.49 | 0.00084 | 562000 | 0.436 | 0.136 | 210 | 169
